Targets include GluA1 (UniProt P19490); HA-GluA1 (UniProt P19490); HA-GluA1ΔNTD; HA-GluA1ΔNTD-GFP×3.
Holding throughout (test): native gel or EMSA
For orientation: Mobility shift assays separate free from complexed probe on a gel.

The target in experiment [1] is GluA1 Lurcher mutant (A636T) (UniProt P19490).
Experiment [2] shares this target. The source holds these as a separate data set.
For experiment [3], the target named is GluA1ΔNTD Lurcher mutant (A636T).
In experiment [4] the target is neuronal AMPA receptor complex detected using the anti-GluA2/3 antibody (mouse (endogenous in cerebellar granule cells)) (UniProt P23819).

“And” between values parts separate entries of the source, which are not always exact repeats. Equal entries are not always repeated. Where two headings read alike, the source gives them in different places.

Chain of UniProt P23819 (P23819 25-883, one chain of several): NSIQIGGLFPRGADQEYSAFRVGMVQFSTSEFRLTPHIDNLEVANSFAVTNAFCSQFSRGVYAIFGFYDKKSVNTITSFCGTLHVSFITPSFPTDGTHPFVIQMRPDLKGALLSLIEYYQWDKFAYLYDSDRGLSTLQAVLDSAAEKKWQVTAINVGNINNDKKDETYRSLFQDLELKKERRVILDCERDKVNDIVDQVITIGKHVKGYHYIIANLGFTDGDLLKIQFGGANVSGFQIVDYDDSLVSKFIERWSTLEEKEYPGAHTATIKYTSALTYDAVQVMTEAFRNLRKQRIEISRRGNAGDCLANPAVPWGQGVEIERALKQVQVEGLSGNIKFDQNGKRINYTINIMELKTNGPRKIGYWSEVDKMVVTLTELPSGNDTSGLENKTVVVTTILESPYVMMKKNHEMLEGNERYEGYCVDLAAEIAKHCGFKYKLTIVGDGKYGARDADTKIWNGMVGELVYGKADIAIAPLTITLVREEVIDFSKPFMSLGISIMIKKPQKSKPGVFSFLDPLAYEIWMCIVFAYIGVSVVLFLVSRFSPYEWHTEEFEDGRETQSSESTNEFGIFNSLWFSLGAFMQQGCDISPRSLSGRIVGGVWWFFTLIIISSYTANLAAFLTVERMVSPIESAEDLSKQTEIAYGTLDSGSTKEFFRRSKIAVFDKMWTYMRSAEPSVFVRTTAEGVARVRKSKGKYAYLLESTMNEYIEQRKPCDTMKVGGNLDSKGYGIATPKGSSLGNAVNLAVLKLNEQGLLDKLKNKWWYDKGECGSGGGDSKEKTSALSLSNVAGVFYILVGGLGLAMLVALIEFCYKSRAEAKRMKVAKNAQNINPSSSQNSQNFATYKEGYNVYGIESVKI

For the molecule “GluA1 (from UniProt P19490 19-907) (receptor)”, the stoichiometry N (subunits in the oligomer) with GluA1 is 4 and 2.
In the case of “GluA1 Lurcher mutant (A636T) (from UniProt P19490 19-907) (receptor)”, the values for the stoichiometry N (subunits in the oligomer) in experiment [1] and in experiment [2] were 4 and 2, respectively.
For “GluA1ΔNTD Lurcher mutant (A636T) (domain or fragment)”, in experiment [3], the stoichiometry N (subunits in the oligomer) turned out to be 4.
The molecule “HA-GluA1 (from UniProt P19490 19-907) (receptor)” gave a stoichiometry N (subunits in the oligomer) in the experiment with HA-GluA1 of 4.
In the experiment with HA-GluA1ΔNTD, HA-GluA1ΔNTD (domain or fragment) came in with a stoichiometry N (subunits in the oligomer) of 4.
In the experiment with HA-GluA1ΔNTD-GFP×3, HA-GluA1ΔNTD-GFP×3 (domain or fragment) yielded a stoichiometry N (subunits in the oligomer) of 4.

B1: stargazin (endogenous, cerebellar granule cells) (natural protein)
chain: MGLFDRGVQMLLTTVGAFAAFSLMTIAVGTDYWLYSRGVCKTKSVSENETSKKNEEVMTHSGLWRTCCLEGNFKGLCKQIDHFPEDADYEADTAEYFLRAVRASSIFPILSVILLFMGGLCIAASEFYKTRHNIILSAGIFFVSAGLSNIIGIIVYISANAGDPSKSDSKKNSYSYGWSFYFGALSFIIAEMVGVLAVHMFIDRHKQLRATARATDYLQASAITRIPSYRYRYQRRSRSSSRSTEPSHSRDASPVGVKGFNTLPSTEISMYTLSRDPLKAATTPTATYNSDRDNSFLQVHNCIQKDSKDSLHANTANRRTTPV
The molecule B1 had a stoichiometry N (stargazin per AMPA receptor tetramer) in experiment [4] of 1.

For the origin of these results see publication PMC2821155.
